# Reference: IntAct's records for PubMed 16888622
# B1: TATA-box-binding protein (Saccharomyces cerevisiae), P13393 (parent)
# chain: MADEERLKEFKEANKIVFDPNTRQVWENQNRDGTKPATTFQSEEDIKRAAPESEKDTSATSGIVPTLQNIVATVTLGCRLDLKTVALHARNAEYNPKRFAAVIMRIREPKTTALIFASGKMVVTGAKSEDDSKLASRKYARIIQKIGFAAKFTDFKIQNIVGSCDVKFPIRLEGLAFSHGTFSSYEPELFPGLIYRMVKPKIVLLIFVSGKIVLTGAKQREEIYQAFEAIYPVLSEFRKM
# partner: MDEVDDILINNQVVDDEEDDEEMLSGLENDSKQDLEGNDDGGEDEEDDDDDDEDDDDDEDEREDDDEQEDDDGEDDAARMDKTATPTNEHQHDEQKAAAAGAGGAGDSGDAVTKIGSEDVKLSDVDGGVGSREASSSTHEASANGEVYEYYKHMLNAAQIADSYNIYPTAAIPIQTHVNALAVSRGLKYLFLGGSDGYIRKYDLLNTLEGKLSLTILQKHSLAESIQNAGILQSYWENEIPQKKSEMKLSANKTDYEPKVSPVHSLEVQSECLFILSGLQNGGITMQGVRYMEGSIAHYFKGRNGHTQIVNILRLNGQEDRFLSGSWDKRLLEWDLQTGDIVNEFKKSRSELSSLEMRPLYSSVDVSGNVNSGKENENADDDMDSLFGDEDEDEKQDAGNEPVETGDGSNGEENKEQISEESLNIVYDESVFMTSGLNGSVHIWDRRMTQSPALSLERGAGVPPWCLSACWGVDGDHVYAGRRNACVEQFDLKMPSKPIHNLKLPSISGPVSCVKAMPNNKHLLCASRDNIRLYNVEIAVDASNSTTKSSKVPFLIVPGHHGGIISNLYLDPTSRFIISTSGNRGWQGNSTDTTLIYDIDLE
# Variants of: B1
# Conditions: with spt8_yeast SPT8, P38915
row,effect of a mutation on the interaction,Variant
1,disrupting interaction,MADEERLKEFKEANKIVFDPNTRQVWENQNRDGTKPATTFQSEEDIKRAAPESEKDTSATSGIVPTLQNIVATVTLGCRLDLKTVALHARNAEYNPKRFAAVIMRIREPKTTALIFASGKMVVTGAKSEDDSKLASRKYARIIQKIGFAAKFTDFKIQNIVGSCDVKFPIELEGLAFSHGTFSSYEPELFPGLIYRMVKPKIVLLIFVSGKIVLTGAKQREEIYQAFEAIYPVLSEFRKM [R171E]
